Experiment [1] addresses T1, LEPR-A409E (signaling-defective mutant) on HEK293 reporter cells (human, UniProt P48357 22-1165).
T1 sequence: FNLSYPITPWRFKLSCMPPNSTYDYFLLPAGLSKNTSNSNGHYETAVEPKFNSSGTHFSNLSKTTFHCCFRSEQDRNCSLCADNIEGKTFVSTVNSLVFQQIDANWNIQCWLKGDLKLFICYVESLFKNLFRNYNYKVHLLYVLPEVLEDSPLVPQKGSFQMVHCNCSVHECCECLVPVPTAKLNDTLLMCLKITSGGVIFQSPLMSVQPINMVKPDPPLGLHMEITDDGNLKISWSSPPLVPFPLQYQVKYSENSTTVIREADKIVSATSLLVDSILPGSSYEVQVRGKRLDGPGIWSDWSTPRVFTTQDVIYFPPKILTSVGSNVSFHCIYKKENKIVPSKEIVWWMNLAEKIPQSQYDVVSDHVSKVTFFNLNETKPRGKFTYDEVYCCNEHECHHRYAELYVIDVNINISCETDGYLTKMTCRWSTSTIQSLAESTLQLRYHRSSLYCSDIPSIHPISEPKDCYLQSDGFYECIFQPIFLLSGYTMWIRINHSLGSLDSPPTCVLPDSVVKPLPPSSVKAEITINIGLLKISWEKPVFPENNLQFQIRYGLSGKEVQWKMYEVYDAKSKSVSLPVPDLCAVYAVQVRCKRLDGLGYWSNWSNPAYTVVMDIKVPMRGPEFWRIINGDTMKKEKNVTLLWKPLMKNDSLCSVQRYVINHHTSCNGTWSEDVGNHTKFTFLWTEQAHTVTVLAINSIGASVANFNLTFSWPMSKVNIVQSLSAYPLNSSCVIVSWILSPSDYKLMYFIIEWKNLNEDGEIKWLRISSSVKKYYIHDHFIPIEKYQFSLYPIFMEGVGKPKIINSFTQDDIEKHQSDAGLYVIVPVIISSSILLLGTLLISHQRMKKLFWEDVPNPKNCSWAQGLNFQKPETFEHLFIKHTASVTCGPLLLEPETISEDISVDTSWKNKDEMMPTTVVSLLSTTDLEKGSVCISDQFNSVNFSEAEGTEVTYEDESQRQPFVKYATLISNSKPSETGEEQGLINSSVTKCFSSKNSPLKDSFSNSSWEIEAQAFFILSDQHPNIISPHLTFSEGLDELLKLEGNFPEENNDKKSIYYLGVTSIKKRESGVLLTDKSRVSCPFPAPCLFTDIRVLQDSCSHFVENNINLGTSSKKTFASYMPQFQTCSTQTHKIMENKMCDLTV
Description: cell-based or functional assay.

Experiment [2] has as its target T2, wild-type LEPR on HEK293 reporter cells (UniProt P48357 22-1165, limits assumed).
T2 sequence (looked up): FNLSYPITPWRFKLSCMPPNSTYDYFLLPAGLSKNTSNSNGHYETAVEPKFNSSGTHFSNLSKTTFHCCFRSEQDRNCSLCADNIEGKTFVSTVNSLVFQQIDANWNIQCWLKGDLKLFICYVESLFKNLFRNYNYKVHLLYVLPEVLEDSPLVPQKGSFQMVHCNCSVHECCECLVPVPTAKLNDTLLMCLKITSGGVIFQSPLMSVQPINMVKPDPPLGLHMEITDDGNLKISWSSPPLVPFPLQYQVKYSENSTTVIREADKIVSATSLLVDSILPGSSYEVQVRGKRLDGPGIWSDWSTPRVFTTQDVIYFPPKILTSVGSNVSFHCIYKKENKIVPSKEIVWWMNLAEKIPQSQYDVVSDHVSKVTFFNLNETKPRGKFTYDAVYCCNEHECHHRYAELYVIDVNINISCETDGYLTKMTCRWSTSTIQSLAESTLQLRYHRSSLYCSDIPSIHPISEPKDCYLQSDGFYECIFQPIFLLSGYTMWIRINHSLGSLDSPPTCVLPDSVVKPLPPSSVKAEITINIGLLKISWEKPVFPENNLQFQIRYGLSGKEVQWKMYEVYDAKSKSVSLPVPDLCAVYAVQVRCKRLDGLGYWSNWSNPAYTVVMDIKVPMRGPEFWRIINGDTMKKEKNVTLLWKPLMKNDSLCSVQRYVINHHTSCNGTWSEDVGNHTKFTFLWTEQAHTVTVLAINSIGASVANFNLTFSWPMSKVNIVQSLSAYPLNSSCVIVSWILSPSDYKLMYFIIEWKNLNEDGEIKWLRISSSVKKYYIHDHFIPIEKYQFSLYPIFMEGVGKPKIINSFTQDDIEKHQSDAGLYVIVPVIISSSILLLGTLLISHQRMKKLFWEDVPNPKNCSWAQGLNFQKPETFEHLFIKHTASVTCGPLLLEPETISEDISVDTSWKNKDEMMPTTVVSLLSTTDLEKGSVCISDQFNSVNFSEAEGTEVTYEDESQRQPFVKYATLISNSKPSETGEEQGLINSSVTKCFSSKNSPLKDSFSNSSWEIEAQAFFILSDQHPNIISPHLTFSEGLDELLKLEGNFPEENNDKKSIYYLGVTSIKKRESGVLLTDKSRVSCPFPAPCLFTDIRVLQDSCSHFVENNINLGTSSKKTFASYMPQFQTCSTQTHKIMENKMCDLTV
Description: cell-based or functional assay.

B1: H4H16650P2 (antibody, V domains shown)
VH: QVQLVESGGGVVQPGKSLRLSCVASGFTFSSDAMYWVRQAPGKGLEWVAVIYYDGNYQYYEDSVKGRFTISRDNSQNTLDLQMNSLRVDDTAVYFCARLNWDYWYLDLWGRGTLVTVSS
VL: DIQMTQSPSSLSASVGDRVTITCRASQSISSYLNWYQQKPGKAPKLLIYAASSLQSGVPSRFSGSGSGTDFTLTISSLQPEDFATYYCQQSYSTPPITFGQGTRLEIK
For B1, the “EC50 (read off the curve), pSTAT3 Y705/STAT3 densitometry” value in experiment [1] is roughly 2e-10 M; in experiment [2], roughly 5e-10 M.
